Earlier results on one substance are cited in publication PMC6085760.

Broadly, the Kd is the equilibrium constant for the complex coming apart.

The target in this data set is Amyloid-β (Homo sapiens) (UniProt P05067).
Chain of Amyloid-β (Homo sapiens) (P05067 672-711): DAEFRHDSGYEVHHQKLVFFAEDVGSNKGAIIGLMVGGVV

With LPFFD peptide, the Kd is 156 µM.
